Km, kcat and kcat/Km data for one substance are collected here from article PMC4327562, “Emergence of terpene cyclization in Artemisia annua” (Nature Communications, 2015).

For this data set, the system named is CC(C)=CCC/C(C)=C/CC/C(C)=C/CO[P@@](=O)(O)OP(=O)(O)O. As to the kind of experiment: purified protein. The conditions noted are these: 5 mM MgCl2, pH 7.0, 30 °C, inorganic pyrophosphatase coupled.

Sequence of (E)-β-farnesene synthase (BFS), A. annua BFS (Artemisia annua) (chain, as listed by the source): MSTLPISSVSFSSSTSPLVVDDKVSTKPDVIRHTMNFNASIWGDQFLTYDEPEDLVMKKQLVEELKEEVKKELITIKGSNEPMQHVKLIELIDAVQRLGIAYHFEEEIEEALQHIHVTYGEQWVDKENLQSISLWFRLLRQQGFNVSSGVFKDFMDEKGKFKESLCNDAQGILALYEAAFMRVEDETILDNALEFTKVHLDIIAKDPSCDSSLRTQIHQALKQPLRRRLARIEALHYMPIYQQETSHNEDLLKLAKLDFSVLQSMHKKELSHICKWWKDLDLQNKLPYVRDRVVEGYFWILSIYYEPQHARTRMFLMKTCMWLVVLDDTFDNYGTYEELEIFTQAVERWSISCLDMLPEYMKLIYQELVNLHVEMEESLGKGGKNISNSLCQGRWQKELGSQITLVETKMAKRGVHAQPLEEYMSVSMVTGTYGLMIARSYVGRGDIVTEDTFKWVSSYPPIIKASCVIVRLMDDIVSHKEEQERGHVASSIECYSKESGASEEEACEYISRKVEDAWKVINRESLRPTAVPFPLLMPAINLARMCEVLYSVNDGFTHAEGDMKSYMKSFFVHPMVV

The Km is the concentration of substrate that gives half-maximal velocity. By kcat is commonly meant the maximal rate divided by the concentration of active sites. As a reminder, the kcat/Km is the turnover number divided by the Michaelis constant. As for “(E)-β-farnesene synthase (BFS), A. annua BFS (Artemisia annua)”, the Michaelis-Menten constant (Km) stood at 16.19 µM, the kcat was found to be 0.17 s⁻¹ and the specificity constant (kcat/Km) is 10500 M⁻¹ s⁻¹.
